{"source": "paper PMC3325482", "origin": "cited, not measured here", "target": "Cd200R (Rattus norvegicus) (UniProt Q9ES58)", "sequence (Q9ES58 24-239)": "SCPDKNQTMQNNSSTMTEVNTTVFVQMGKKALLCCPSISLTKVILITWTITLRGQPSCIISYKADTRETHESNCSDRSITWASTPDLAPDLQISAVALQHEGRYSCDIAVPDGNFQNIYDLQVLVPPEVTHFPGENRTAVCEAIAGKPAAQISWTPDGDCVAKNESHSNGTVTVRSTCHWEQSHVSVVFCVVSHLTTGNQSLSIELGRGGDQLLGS"}
{"substance": "Cd200 (from UniProt P04218)", "values": [{"measurement": "Kd", "result": 2000, "unit": "nM"}]}
